# Source: paper PMC11289882, “Site-directed allostery perturbation to probe the negative regulation of hypoxia inducible factor-1α” (RSC Chemical Biology, 2024)
# Experiments:
# [1] = biological target: CITED2ΔN 224-256 (Homo sapiens) (UniProt Q99967); experiment: fluorescence anisotropy competition
# [2] = biological target: CITED2 218-256 218-256 (Homo sapiens) (UniProt Q99967); experiment: fluorescence anisotropy competition
# [3] = biological target: Flu-HIF-1α 786-826 (Homo sapiens) (UniProt Q16665); experiment: anisotropy
# Flu-HIF-1α 786-826 (Homo sapiens), sequence (Q16665 786-826): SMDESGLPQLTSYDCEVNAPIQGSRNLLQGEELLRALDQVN
# [4] = biological target: CITED2ΔN 224-256 (Homo sapiens) (UniProt Q99967); experiment: ITC
# [5] = biological target: CITED2 218-256 218-256 (Homo sapiens) (UniProt Q99967); experiment: ITC
# p300 TAZ1 330-420, Q09472, sequence (Q09472 330-420): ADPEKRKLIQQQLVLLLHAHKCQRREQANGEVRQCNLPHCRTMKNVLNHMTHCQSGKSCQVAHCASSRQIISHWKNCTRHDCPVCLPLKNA
# CITED2 218-256 218-256 (Homo sapiens), sequence (Q99967 218-256): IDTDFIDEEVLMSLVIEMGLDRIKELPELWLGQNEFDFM
# CITED2ΔN 224-256 (Homo sapiens), sequence (Q99967 224-256, stated change not applied): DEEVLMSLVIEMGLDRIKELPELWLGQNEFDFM
substance,measurement,setting,value
"p300 TAZ1 330-420, Q09472",Kd,[1],86 nM
same,Kd,[2],2 nM
same,Kd,[3],64 nM
same,Kd,[4],50.5 nM
same,Kd,[5],10.6 nM
